T1: RAD52 FL (human, UniProt P43351 1-418)
T1 sequence: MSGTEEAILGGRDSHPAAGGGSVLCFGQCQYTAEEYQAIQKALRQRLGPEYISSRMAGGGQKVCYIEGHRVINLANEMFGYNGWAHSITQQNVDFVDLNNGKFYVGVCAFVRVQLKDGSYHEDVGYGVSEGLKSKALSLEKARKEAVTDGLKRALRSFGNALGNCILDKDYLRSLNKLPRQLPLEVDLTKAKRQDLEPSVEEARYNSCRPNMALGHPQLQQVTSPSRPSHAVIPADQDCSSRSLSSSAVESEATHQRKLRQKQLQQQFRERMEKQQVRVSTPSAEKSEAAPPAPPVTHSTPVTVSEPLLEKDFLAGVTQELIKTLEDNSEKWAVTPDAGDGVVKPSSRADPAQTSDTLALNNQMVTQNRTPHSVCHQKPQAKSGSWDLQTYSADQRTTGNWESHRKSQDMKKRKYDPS

B1: Histidine-tagged human RAD52 N-terminal domain (1-212) (domain or fragment, UniProt P43351 1-212, looked up)
chain: MSGTEEAILGGRDSHPAAGGGSVLCFGQCQYTAEEYQAIQKALRQRLGPEYISSRMAGGGQKVCYIEGHRVINLANEMFGYNGWAHSITQQNVDFVDLNNGKFYVGVCAFVRVQLKDGSYHEDVGYGVSEGLKSKALSLEKARKEAVTDGLKRALRSFGNALGNCILDKDYLRSLNKLPRQLPLEVDLTKAKRQDLEPSVEEARYNSCRPNM

How the values were obtained:
RAD52 FL = target: T1, RAD52 FL; test: fluorescence polarization
dynamic light scattering = target: the molecule itself; test: dynamic light scattering

| Binder | Kd (RAD52 FL) | stoichiometry N (dynamic light scattering) |
| --- | --- | --- |
| TTTTTTTTTTTTTTTTTTTTTTTTTTTTTT (ssDNA) [dT30 ssDNA] | 37.2 ± 0.4 nM |  |
| B1 |  | ~11 |
